Measurements as given in paper PMC7700444.

Substrate: O=C(O)C(=O)O
Assay: purified protein
Details: 0.5 mM CoA, 5 mM ATP, 10 mM MgCl2, 2 mM DTT, 0.1 M Tris-HCl or NaPO4 pH 8.0, sodium oxalate as substrate

B1: GsAAE3 (Glycine max) (protein)
chain: MKDTMETPTTLTTLLRHVAAKFPSRRAISVAAKFDLTHSRLHRLVESAAAQLVSAGVKPGDVVALTFPNTIEFVVMFLAVIRARATAAPLNSAYTAEEFEFYLSDSESKLLLTSPEGNKPAQAAASKLSIPHATASITKAENEEAELSLSLLNHPELNSVNSVESLVNDPDDVALFLHTSGTTSRPKGVPLTQYNLLSSVKNIDSVYRLTESDSTVIVLPLFHVHGLIAGLLSSLGAGAAVALPAAGRFSASAFWKDMIKYSATWYTAVPTIHQIILDRHSSNPEPVYPRLRFIRSCSASLAPVILGKLEEAFGAPVLEAYAMTEASHLMASNPLPQDGAHKSGSVGKPVGQEMGILDESGRVQEAGISGEVCIRGSNVTKGYKNNVAANTASFLFDWFHTGDIGYFDSDGYLHLVGRIKELINRGGEKISPIEVDAVLLSHPEIAQAVAFGVPDAKYGEEIYCAVIPREGSNVDEAEVLRFSKTNLASFKVPKKVFITDSLPKTATGKILRRLVAEHFVSQI
- Km: 105.10 ± 12.30 µM
